# Laboratory results: patent US20240424023A1
# Legend:
# [1] = target: CD86-mCherry expressed on DG75 cells (UniProt P42081); assay: cell-based or functional assay
# [2] = target: CD80-mCherry expressed on DG75 cells (UniProt P33681); assay: cell-based or functional assay
# UniProt P33681, sequence (P33681 35-288): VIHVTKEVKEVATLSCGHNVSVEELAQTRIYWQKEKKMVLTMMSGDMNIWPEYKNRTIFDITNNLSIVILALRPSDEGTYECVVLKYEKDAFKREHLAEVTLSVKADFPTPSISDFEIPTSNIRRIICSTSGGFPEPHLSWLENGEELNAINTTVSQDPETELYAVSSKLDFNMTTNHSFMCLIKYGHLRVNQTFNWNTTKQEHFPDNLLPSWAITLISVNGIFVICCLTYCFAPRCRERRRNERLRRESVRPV
# UniProt P42081, sequence (P42081 24-329): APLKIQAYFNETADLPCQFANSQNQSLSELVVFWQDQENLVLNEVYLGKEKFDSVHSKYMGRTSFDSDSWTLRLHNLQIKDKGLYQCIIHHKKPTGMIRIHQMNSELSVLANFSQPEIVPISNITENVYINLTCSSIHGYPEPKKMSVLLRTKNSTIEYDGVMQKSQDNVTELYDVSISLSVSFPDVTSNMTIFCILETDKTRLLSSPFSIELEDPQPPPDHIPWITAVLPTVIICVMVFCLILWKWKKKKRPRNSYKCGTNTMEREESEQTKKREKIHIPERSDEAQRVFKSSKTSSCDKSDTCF
substance,measurement,setting,value
"CTLA4 expressed from a CTLA4-P2A-GFP transgene in human T cells (exon 1 cDNA insertion, intron 1 insertion of exons 2-4 with WPRE donor, or lentiviral vector) (from UniProt P16410 36-223) (receptor)","transendocytosis, cells edited with the cDNA exon 1 insertion (fold less than unedited cells)",[1],2
same,"transendocytosis, cells edited with the cDNA exon 1 insertion (fold less than unedited cells)",[2],2
